Data published in patent US20260275319A1, “ARCHAEAL PEPTIDE RECOMBINASE – A NOVEL PEPTIDE LIGATING ENZYME” (MAX-PLANCK-GESELLSCHAFT ZUR FÖRDERUNG DER WISSENSCHAFTEN …, priority 2019, published 2026).

Experiments:
(15)KDPGA(0) = experiment: microscale thermophoresis (MST); table row (15)KDPGA(0)
(15)KDPGA(5) = experiment: microscale thermophoresis (MST); table row (15)KDPGA(5)

B1: M. jannaschii Adriase S1A mutant with C-terminal His-tag, Q57968 3-293 (enzyme)
chain: ALIICYYGKNGAVIGGDRRQIFFRGSEENRKILEEKLYSGEIKSEEELYKLAEKLNIKIIIEDDREKVRKISDSVVCGEVRSLGIDAKRRRVYATKGKCAIVDILNDTVTNQTIKEGFGIVVLGNRFLKKKAEEELKRTAKLFPMMPIQQIEDAIKEIFEKLKWHPTVSKEYDIYSVNKYEKNFEEVIKKDIESLFKYREQLRKQLIDFGKVMSIVNKIVKNGEIGVIKDGKLHLYDDYIAIDKIDPNPKVFKVVDVEGNFKDGDIVVIENGDMKIKGTNEKVTTKYIIIHKGSHHHHHH
(15)KDPGA(0)
  Kd: > 20 µM
(15)KDPGA(5)
  Kd: > 20 µM
